Reference: paper doi:10.1101/2024.05.08.592654

Biological target: GFP-PNUTS^W726A-HA (non-PP1 binding mutant) (Drosophila)
Assay: affinity purification with mass spectrometry

- fold more abundant with PNUTS^WT than with PNUTS^W726A: 12 fold
Substance: PP1-87B (from UniProt P12982 1-302) (enzyme)
